Test results taken from US20220228157A1, “GENE EDITING IN DIVERSE BACTERIA” (priority 2019, published 2022).
Substitutions are numbered along the chain they refer to. Names may count otherwise.

B1: LlMutL.E33K: L. lactis MutL carrying the equivalent dominant negative mutation, SEQ ID NO: 513 (protein)
chain: MGKIIELNEALANQIAAGEVVERPASVVKELVKNSIDAGSSKIIINVEEAGLRLIEVIDNGLGLEKEDVALALRRHATSKIKDSADLFRIRTLGFRGEALPSIASVSQMTIETSNAQEEAGTKLIAKGGTIETLEPLAKRLGTKISVANLFYNTPARLKYIKSLQAELSHITDIINRLSLAHPEISFTLVNEGKEFLKTAGNGDLRQVIAAIYGIGTAKKMREINGSDLDFELTGYVSLPELTRANRNYITILINGRFIKNFLLNRAILEGYGNRLMVGRFPFAVLSIKIDPKLADVNVHPTKQEVRLSKERELMTLISKAIDETLSEGVLIPEALENLQGRAKEKGTVSVQTELPLQNNPLYYDNVRQDFFVREEAIFEINKNDNSDSLTEQNSTDYTVNQPETGSVSEKITDRTVESSNEFTDRTPKNSVSNFGVDFDNIEKLSQQSTFPQLEYLAQLHATYLLCQSKEGLYLVDQHAAQERIKYEYWKDKIGEVSMEQQILLAPYLFTLPKNDFIVLAEKKDLLHEAGVFLEEYGENQFILREHPIWLKETEIEKSINEMIDIILSSKEFSLKKYRHDLAAMVACKSSIKANHPLDAESARALLRELSTCKNPYSCAHGRPTIVHFSGDDIQKMFRRIQETHRSKAASWKDFE
B2: MutL.E32K from E. coli: dominant negative mismatch repair protein, SEQ ID NO: 515 (protein)
chain: MPIQVLPPQLANQIAAGEVVERPASVVKELVKNSLDAGATRIDIDIERGGAKLIRIRDNGCGIKKDELALALARHATSKIASLDDLEAIISLGFRGEALASISSVSRLTLTSRTAEQQEAWQAYAEGRDMNVTVKPAAHPVGTTLEVLDLFYNTPARRKFLRTEKTEFNHIDEIIRRIALARFDVTINLSHNGKIVRQYRAVPEGGQKERRLGAICGTAFLEQALAIEWQHGDLTLRGWVADPNHTTPALAEIQYCYVNGRMMRDRLINHAIRQACEDKLGADQQPAFVLYLEIDPHQVDVNVHPAKHEVRFHQSRLVHDFIYQGVLSVLQQQLETPLPLDDEPQPAPRSIPENRVAAGRNHFAEPAAREPVAPRYTPAPASGSRPAAPWPNAQPGYQKQQGEVYRQLLQTPAPMQKLKAPEPQEPALAANSQSFGRVLTIVHSDCALLERDGNISLLSLPVAERWLRQAQLTPGEAPVCAQPLLIPLRLKVSAEEKSALEKAQSALAELGIDFQSDAQHVTIRAVPLPLRQQNLQILIPELIGYLAKQSVFEPGNIAQWIARNLMSEHAQWSMAQAITLLADVERLCPQLVKTPPGGLLQSVDLHPAIKALKDE
B3: L1SSB C8:EcSSB (protein)
chain: MINNVVLVGRITRDPELRYTPQNQAVATFSLAVNRQFKNANGEREADFINCVIWRQQAENLANWAKKGALIGVTGRIQTRNYENQQGQRVYVTEVVADSFQMLESRSARDGMGGGASAGSYSAPSQSTNNTPRPQTNNNSATPNFGRDADPFGSSPMEMEDFDDDIPF
B4: L1SSB C7:EcSSB (protein)
chain: MINNVVLVGRITRDPELRYTPQNQAVATFSLAVNRQFKNANGEREADFINCVIWRQQAENLANWAKKGALIGVTGRIQTRNYENQQGQRVYVTEVVADSFQMLESRSARDGMGGGASAGSYSAPSQSTNNTPRPQTNNNSATPNFGRDADPFGSSPMEIMEIFDDDIPF
B5: L1SSB C8:PaSSB (protein)
chain: B3 chain with D161S
B6: L1SSB C8:MsSSB (protein)
chain: B3 chain with D161G, F162A, D165E, I166P
B7: L1SSB C7:PaSSB (protein)
chain: B4 chain
B8: L1SSB C7:MsSSB (protein)
chain: B4 chain with F163A, D166E, I167P
B9: SR041: SSAP candidate (protein)
chain: MAKIKLTNVRIAFINNLRTPAEFEAGDGKFRYSATFLVEKGSANDKAIEAAIKSVAVEGWAKKADAMLESFRSNSNKFCYQNGDLKDFDGFEGNMYIAAHRKRDDGRPLLLDNVADPETGKPARLVDANGEWLAGKEGRIYAGCYVNATIDIYAQTKTNPGIRCGLMGVQYHGPGDSFSGASRANEDDFEATAPETEDELD
modifications: Burkholderia phage BcepC6B
notes: SSAP candidate
B10: PF003: SSAP candidate (protein)
chain: MAENEKQALLQEENKSENVVSTVKRTALATNPFSDTDQFNNIFKMAQLISQSDMIPATYKGKPMNCVIALEQANRMGVSPLMVMQNLYVVKGVPSWSGQGCMMIIQGCGKFRDVDYVYSGEKGTDSRSCKVVATRISDGKRIEGTEITMQMVKSEGWISNTKWKNMPEQMLGYRAATFFARMYCPNELNGFATEGEAEDMNHKPQRIEAINVLGDTAHE
modifications: Clostridium sp FS41
notes: SSAP candidate
B11: SR033: SSAP candidate (protein)
chain: MADYEEQMLALQKPLQPDRVVWRVQQSGFSKQGKPWAMVLAYMDNRAVQERFDEVFGIAGWKNEFKTAPDGGTLCGISVKFGDEWVTKWDGAENTQVEAVKGGLSGSMKRAAVQWGVGRYLYDLPTSFAQTSLEKTDGWNKVFDKNSKKNFWWKNPQLPSWALPQNSKVQNTKADFTEEEIPNPPKLYVVGKDKKEFDEKKLQAVVNKMAIIAGKDYGASVDEQNDWLKMPLDEAYNDIEKFVDIKKEEQND
modifications: Lactococcus phage bIL286,Lactococcus lactis subsp lactis (strain IL1403) (Streptococcuslactis)
notes: SSAP candidate
B12: SR024: SSAP candidate (protein)
chain: MAIDNQSTKVITGKVRLSYTHVFEPQENDSGDMKYSTAILIPKSDKETLRKIKAAVDAAKELGKSKWGGKIPANCKTPLRDGDEERPDDEAYAGHYFLNASSKNKPGVAKPIGKDGNGKTKFQEITDSTEVYSGCYAKVSLNFYPFDAKGNRGVAAGLNNIVKVQDGDFLGGRSSVNDDFANEDFDDIVDISDDDDFLN
modifications: Paenibacillus lactis 154
notes: SSAP candidate

These molecules were tested on L. lactis (assay: Allelic recombination frequency, selective vs non-selective plates). Conditions: co-expressed with PapRecT and PaSSB.
Type: cell-based, Lactococcus lactis
Protocol: Four variants known to enable high genome editing efficiency were selected (Redβ and PapRecT in E. coli, LrpRecT in L. lactis, and MspRecT in M. smegmatis), and tested codon optimized versions of all four in both E. coli (gram-negative), and L. lactis (gram-positive). Genome editing efficiency was measured by introducing oligos encoding known antibiotic resistance mutations, and compared the antibiotic resistant cell counts to the total number of viable cells in the population (FIGS. 17E-17F). […] In L. lactis, LrpRecT was the only functional homolog, and improved oligo incorporation 7,700-fold, while the three other RecT variants were nearly non-functional, improving oligo incorporation less than 7-fold (FIG. 17H). No RecT protein functioned well both in E. coli and L. lactis.
A single colony of L. lactis was grown overnight to saturation. 500 μL of dense culture was inoculated into 5 mL of fresh media, supplemented with 500 mM sucrose and 2.5% (w/v) glycine, and grown for 3 hours. To induce gene expression of the pJP005 vector for recombineering experiments, the cells were grown for an additional 30 min after adding 1 ng/mL freshly diluted nisin, unless stated otherwise. For the optimized condition (FIG. 20B), 10 ng/mL nisin was used. Cells were pelleted at 4° C. by centrifugation at 5,000×g for 5 minutes and washed twice with 2 mL of ice-cold electroporation buffer (500 mM sucrose containing 10% (w/v) glycerol) by centrifugation at 13,200×g for 2.5 minutes. Cells were resuspended in 80 μL ice-cold electroporation buffer containing DNA and transferred to a pre-chilled 0.1 cm electroporation cuvette.
Electrocompetent cells were electroporated with 90-mer oligos at: 1 uM for E. coli, 50 μg for L. lactis, and 10 uM for C. crescentus. 70-mer oligos were used at 1 μg for M. smegmatis. All oligos were obtained from IDT and can be found under “Oligonucleotides for genome editing” in materials and methods. For dsDNA experiments L. lactis was electroporated with 1.5 μg purified linear dsDNA. Cells were electroporated using a Bio-Rad gene pulser set to 25 μF, 200 S2, and 1.8 kV for E. coli, 2.0 kV for L. lactis, and 1.5 kV for C. crescentus and to 1000Ω and 2.5 kV for M. smegmatis. Immediately after electroporation, cells were recovered in fresh media for 3 hours for E. coli, 1 hour for L. lactis, overnight for M. smegmatis and overnight for C. crescentus. L. lactis recovery media was supplemented with MgCl2 and CaCl2) at a concentration of 20 mM and 2 mM, respectively. E. coli recovery media was supplemented with carbenicillin. M. smegmatis recovery media was supplemented with hygromycin. C. crescentus recovery media was supplemented with 0.3% xylose and kanamycin. After recovery, the cells were serial diluted and plated on non-selective vs. selective agar plates to obtain approximately 50-500 CFU/plate. Colonies were counted using a custom script in Fiji, and allelic recombination frequency was calculated by dividing the number of colonies on selective plates, with the number of colonies on non-selective plates.

Q: B1 was tested. Which “Function of dominant negative MutL” value did it give?
A: Its value is “enabled the efficient introduction of 1 bp pair changes”.

Q: B2 was tested. Which “Function of dominant negative MutL” value did it give?
A: Its value is “nonfunctional”.

Same assay, conditions: co-expressed with Redβ

Q: Which “Genome editing efficiency lower than Redβ with EcSSB” value does the source give for B3 here?
A: Its value is ≤ 2.6 fold.

Q: B4 was tested. Which “Genome editing efficiency lower than Redβ with EcSSB” value did it give?
A: The value was ≤ 5.9 fold.

Same assay, conditions: co-expressed with the RecT

Q: With B5 as the molecule, how does the “Editing efficiency with chimeric SSB” value read?
A: The value was “completely recovered”.

Q: B6 was tested. Which “Editing efficiency with chimeric SSB” value did it give?
A: Its value is “completely recovered”.

Q: For B7, which “Editing efficiency with chimeric SSB” value is on record?
A: Its value is “completely recovered”.

Q: For B8, which “Editing efficiency with chimeric SSB” value is on record?
A: Its value is “completely recovered”.

What follows are molecules tested on Staphylococcus aureus (assay: SSAP candidate enrichment). Conditions: not given.
Type: cell-based
Protocol: The editing efficiency of SSAP candidates was also tested in Agrobacterium tumefaciens and in Staphylococcus aureus using the methods described above.

Q: B9 was tested. Which “Editing efficiency (enrichment) relative to other SSAP candidates” value did it give?
A: Its value is “increase in editing efficiency”.

Q: B10 was tested. Which “Editing efficiency (enrichment) relative to other SSAP candidates” value did it give?
A: The value was “increase in editing efficiency”.

Q: How did the “Editing efficiency (enrichment) relative to other SSAP candidates” value turn out when B11 was run?
A: Its value is “increase in editing efficiency”.

Q: With B12 as the molecule, how does the “Editing efficiency (enrichment) relative to other SSAP candidates” value read?
A: The value was “increase in editing efficiency”.
